# Test results taken from patent publication US20150344570A1 (published 2015).
# T1: FcγRIIb (human, UniProt P31994 43-217)
# T1 construct: extracellular domain; Soluble extracellular domain with a C-terminal His tag, expressed in FreeStyle293 cells; also called FcgRIIb; 2b; not shown: His tag attached to the C terminus
# T1 sequence (looked up): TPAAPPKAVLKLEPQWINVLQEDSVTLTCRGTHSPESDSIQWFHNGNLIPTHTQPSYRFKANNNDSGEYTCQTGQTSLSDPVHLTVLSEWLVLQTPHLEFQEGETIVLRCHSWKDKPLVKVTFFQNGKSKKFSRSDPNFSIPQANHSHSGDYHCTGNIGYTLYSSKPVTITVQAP
# T2: FcγRIIa H (FcγRIIa type H, His at position 131), extracellular domain with C-terminal His tag (human, UniProt P12318 34-217)
# T2 construct: extracellular domain; expressed in FreeStyle293 cells; also called FcgRIIa H; 2aH; not shown: His tag attached to the C terminus
# T2 sequence (looked up): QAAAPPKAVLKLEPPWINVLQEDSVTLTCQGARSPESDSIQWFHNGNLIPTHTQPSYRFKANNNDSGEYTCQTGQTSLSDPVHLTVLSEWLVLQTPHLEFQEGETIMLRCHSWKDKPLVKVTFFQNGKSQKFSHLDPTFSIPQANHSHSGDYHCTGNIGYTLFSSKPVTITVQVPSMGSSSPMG
# T3: FcγRIIb, extracellular domain with C-terminal His tag (human, UniProt P31994 43-217)
# T3 construct: extracellular domain; expressed in FreeStyle293 cells; also called FcgRIIb; 2b; not shown: His tag attached to the C terminus
# T3 sequence (looked up): T1 sequence (looked up)
# B1: GpH7-A5/GpH7-B3 variant P238_03V/GpL16-k0 (antibody, human IgG1, kappa)
# heavy 1: not shown
# heavy 2: not shown
# light: DIVMTQSPLSLPVTPGEPASISCQASESLVHSNRNTYLHWYLQKPGQSPQLLIYKVSNRFSGVPDRFSGSGSGTDFTLKISRVEAEDVGVYYCSQNTHVPPTFGQGTKVEIERTVAAPSVFIFPPSDEQLKSGTASVVCLLNNFYPREAKVQWKVDNALQSGNSQESVTEQDSKDSTYSLSSTLTLSKADYEKHKVYACEVTHQGLSSPVTKSFNRGEC
# notes: Heterodimerized anti-glypican-3 IgG1; the mutation is in the GpH7-B3 chain only; also called He Ab
# B2: GpH7-A5/GpH7-B3 variant D265_01G/GpL16-k0 (antibody, human IgG1, kappa)
# heavy 1: not shown
# heavy 2: not shown
# light: B1 light
# notes: as for B1
# B3: GpH7-A5/GpH7-B3 variant P238_06M/GpL16-k0 (antibody, human IgG1, kappa)
# heavy 1: not shown
# heavy 2: not shown
# light: B1 light
# notes: as for B1
# B4: GpH7-A5/GpH7-B3 variant P238_04F/GpL16-k0 (antibody, human IgG1, kappa)
# heavy 1: not shown
# heavy 2: not shown
# light: B1 light
# notes: as for B1
# B5: GpH7-A5/GpH7-B3 variant P238_14T/GpL16-k0 (antibody, human IgG1, kappa)
# heavy 1: not shown
# heavy 2: not shown
# light: B1 light
# notes: Heterodimerized antibody (He Ab): mutation in the GpH7-B3 chain only; also called He Ab
# B6: GpH7-A5/GpH7-B3 variant P238_20W/GpL16-k0 (antibody, human IgG1, kappa)
# heavy 1: not shown
# heavy 2: not shown
# light: B1 light
# notes: as for B5
# B7: GpH7-A5/GpH7-B3 variant P238_19Q/GpL16-k0 (antibody, human IgG1, kappa)
# heavy 1: not shown
# heavy 2: not shown
# light: B1 light
# notes: as for B5
# B8: GpH7-A5/GpH7-B3 variant P238_15Y/GpL16-k0 (antibody, human IgG1, kappa)
# heavy 1: not shown
# heavy 2: not shown
# light: B1 light
# notes: as for B5
# B9: GpH7-A5/GpH7-B3 variant P238_16H/GpL16-k0 (antibody, human IgG1, kappa)
# heavy 1: not shown
# heavy 2: not shown
# light: B1 light
# notes: as for B5
# B10: GpH7-A5/GpH7-B3 variant S239_09D/GpL16-k0 (antibody, human IgG1, kappa)
# heavy 1: not shown
# heavy 2: not shown
# light: B1 light
# notes: as for B5
# B11: GpH7-A5/GpH7-B3 variant V266_06M/GpL16-k0 (antibody, human IgG1, kappa)
# heavy 1: not shown
# heavy 2: not shown
# light: B1 light
# notes: as for B5
# B12: GpH7-A5/GpH7-B3 variant V266_09D/GpL16-k0 (antibody, human IgG1, kappa)
# heavy 1: not shown
# heavy 2: not shown
# light: B1 light
# notes: as for B5
# B13: GpH7-A5/GpH7-B3 variant V266_12R/GpL16-k0 (antibody, human IgG1, kappa)
# heavy 1: not shown
# heavy 2: not shown
# light: B1 light
# notes: as for B5
# B14: GpH7-A5/GpH7-B3 variant S239_10E/GpL16-k0 (antibody, human IgG1, kappa)
# heavy 1: not shown
# heavy 2: not shown
# light: B1 light
# notes: as for B5
# B15: GpH7-A5/GpH7-B3 variant V266_01G/GpL16-k0 (antibody, human IgG1, kappa)
# heavy 1: not shown
# heavy 2: not shown
# light: B1 light
# notes: as for B5
# B16: GpH7-A5/GpH7-B3 variant S239_18N/GpL16-k0 (antibody, human IgG1, kappa)
# heavy 1: not shown
# heavy 2: not shown
# light: B1 light
# notes: as for B5
# B17: GpH7-A5/GpH7-B3 variant V266_04F/GpL16-k0 (antibody, human IgG1, kappa)
# heavy 1: not shown
# heavy 2: not shown
# light: B1 light
# notes: as for B5
# B18: GpH7-A5/GpH7-B3 variant P238_18N/GpL16-k0 (antibody, human IgG1, kappa)
# heavy 1: not shown
# heavy 2: not shown
# light: B1 light
# notes: as for B5
# B19: GpH7-A5/GpH7-B3 variant V266_07I/GpL16-k0 (antibody, human IgG1, kappa)
# heavy 1: not shown
# heavy 2: not shown
# light: B1 light
# notes: as for B5
# B20: GpH7-A5/GpH7-B3 variant V266_13S/GpL16-k0 (antibody, human IgG1, kappa)
# heavy 1: not shown
# heavy 2: not shown
# light: B1 light
# notes: as for B5
# B21: GpH7-A5/GpH7-B3 variant S239_01G/GpL16-k0 (antibody, human IgG1, kappa)
# heavy 1: not shown
# heavy 2: not shown
# light: B1 light
# notes: as for B5
# B22: GpH7-A5/GpH7-B3 variant V266_08L/GpL16-k0 (antibody, human IgG1, kappa)
# heavy 1: not shown
# heavy 2: not shown
# light: B1 light
# notes: as for B5
# B23: GpH7-A5/GpH7-B3 variant S239_08L/GpL16-k0 (antibody, human IgG1, kappa)
# heavy 1: not shown
# heavy 2: not shown
# light: B1 light
# notes: as for B5
# B24: GpH7-A5/GpH7-B3 variant S239_20W/GpL16-k0 (antibody, human IgG1, kappa)
# heavy 1: not shown
# heavy 2: not shown
# light: B1 light
# notes: as for B5
# B25: GpH7-A5/GpH7-B3 variant V266_15Y/GpL16-k0 (antibody, human IgG1, kappa)
# heavy 1: not shown
# heavy 2: not shown
# light: B1 light
# notes: as for B5
# B26: GpH7-A5/GpH7-B3 variant V266_14T/GpL16-k0 (antibody, human IgG1, kappa)
# heavy 1: not shown
# heavy 2: not shown
# light: B1 light
# notes: as for B5
# B27: GpH7-A5/GpH7-B3 variant V266_10E/GpL16-k0 (antibody, human IgG1, kappa)
# heavy 1: not shown
# heavy 2: not shown
# light: B1 light
# notes: as for B5
# B28: GpH7-A5/GpH7-B3 variant S239_05P/GpL16-k0 (antibody, human IgG1, kappa)
# heavy 1: not shown
# heavy 2: not shown
# light: B1 light
# notes: as for B5
# Biological target: T4, FcγRIIIa (human, UniProt P08637 17-208)
# T4 construct: extracellular domain; Soluble extracellular domain with a C-terminal His tag; also called FcgRIIIa; 3a; not shown: His tag attached to the C terminus
# Assay: SPR; He/Con_3a (FcγRIIIa) divided by He/Con_2b (FcγRIIb)
# T4 sequence (P08637 17-208): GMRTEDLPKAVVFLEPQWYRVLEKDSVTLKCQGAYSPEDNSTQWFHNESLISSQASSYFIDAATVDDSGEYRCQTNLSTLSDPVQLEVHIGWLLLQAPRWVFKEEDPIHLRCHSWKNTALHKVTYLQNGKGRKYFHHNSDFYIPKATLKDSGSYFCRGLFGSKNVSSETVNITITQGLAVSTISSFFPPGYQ
row,Binder,He_3a/2b (IIIa/IIb)
1,B1,0.36 ratio
2,B2,0.28 ratio
3,B3,0.18 ratio
4,B4,0.15 ratio

# Biological target: T1, FcγRIIb
# Assay: SPR (Biacore), antibody captured on chip, FcγR as analyte
row,Binder,He/Con_2b
1,B1,"120 relative binding, GpH7-A5/GpH7-B3/GpL16-k0 = 100"
2,B2,"16.1 relative binding, GpH7-A5/GpH7-B3/GpL16-k0 = 100"
3,B3,"174 relative binding, GpH7-A5/GpH7-B3/GpL16-k0 = 100"
4,B4,"312 relative binding, GpH7-A5/GpH7-B3/GpL16-k0 = 100"

# Biological target: T4, FcγRIIIa
# Assay: as above
row,Binder,He/Con_3a
1,B1,"43.8 relative binding, GpH7-A5/GpH7-B3/GpL16-k0 = 100"
2,B2,"4.5 relative binding, GpH7-A5/GpH7-B3/GpL16-k0 = 100"
3,B3,"30.5 relative binding, GpH7-A5/GpH7-B3/GpL16-k0 = 100"
4,B4,"46.7 relative binding, GpH7-A5/GpH7-B3/GpL16-k0 = 100"

# Biological target: T2, FcγRIIa H (FcγRIIa type H, His at …)
# Assay: SPR (Biacore); He/Con_2aH divided by He/Con_2b (FcγRIIa H against FcγRIIb)
row,Binder,He_2aH/2b (IIaH/IIb)
1,B5,0.74 ratio
2,B6,0.49 ratio
3,B7,0.51 ratio
4,B8,0.27 ratio
5,B9,0.4 ratio
6,B10,0.56 ratio
7,B11,0.33 ratio
8,B12,0.63 ratio
9,B13,-1.05 ratio
10,B14,0.62 ratio
11,B15,0.71 ratio
12,B16,0.79 ratio
13,B17,0.44 ratio
14,B18,0.73 ratio
15,B19,0.69 ratio
16,B20,0.5 ratio
17,B21,0.67 ratio
18,B22,0.44 ratio
19,B23,0.75 ratio
20,B24,0.78 ratio
21,B25,0.37 ratio
22,B26,0.53 ratio
23,B27,0.66 ratio
24,B28,0.33 ratio

# Biological target: T2, FcγRIIa H (FcγRIIa type H, His at …)
# Assay: SPR (Biacore), antibody captured on antigen peptide chip, FcγR as analyte; relative to GpH7-A5/GpH7-B3/GpL16-k0 = 100
row,Binder,He/Con_2aH (relative binding activity)
1,B5,37.7 % of HeCon Ab (= 100)
2,B6,59.5 % of HeCon Ab (= 100)
3,B7,56.4 % of HeCon Ab (= 100)
4,B8,59.8 % of HeCon Ab (= 100)
5,B9,45.9 % of HeCon Ab (= 100)
6,B10,114 % of HeCon Ab (= 100)
7,B11,83.9 % of HeCon Ab (= 100)
8,B12,6.4 % of HeCon Ab (= 100)
9,B13,1.1 % of HeCon Ab (= 100)
10,B14,112 % of HeCon Ab (= 100)
11,B15,36.7 % of HeCon Ab (= 100)
12,B16,94.2 % of HeCon Ab (= 100)
13,B17,25.3 % of HeCon Ab (= 100)
14,B18,53.5 % of HeCon Ab (= 100)
15,B19,106 % of HeCon Ab (= 100)
16,B20,27 % of HeCon Ab (= 100)
17,B21,97 % of HeCon Ab (= 100)
18,B22,104 % of HeCon Ab (= 100)
19,B23,105 % of HeCon Ab (= 100)
20,B24,35.2 % of HeCon Ab (= 100)
21,B25,18.1 % of HeCon Ab (= 100)
22,B26,43.3 % of HeCon Ab (= 100)
23,B27,10.1 % of HeCon Ab (= 100)
24,B28,33.3 % of HeCon Ab (= 100)

# Biological target: T3, FcγRIIb, extracellular domain with …
# Assay: as above
row,Binder,He/Con_2b (relative binding activity)
1,B5,50.7 % of HeCon Ab (= 100)
2,B6,123 % of HeCon Ab (= 100)
3,B7,110 % of HeCon Ab (= 100)
4,B8,218 % of HeCon Ab (= 100)
5,B9,115 % of HeCon Ab (= 100)
6,B10,206 % of HeCon Ab (= 100)
7,B11,251 % of HeCon Ab (= 100)
8,B12,10.1 % of HeCon Ab (= 100)
9,B13,-1.1 % of HeCon Ab (= 100)
10,B14,181 % of HeCon Ab (= 100)
11,B15,51.5 % of HeCon Ab (= 100)
12,B16,119 % of HeCon Ab (= 100)
13,B17,57.6 % of HeCon Ab (= 100)
14,B18,73.2 % of HeCon Ab (= 100)
15,B19,152 % of HeCon Ab (= 100)
16,B20,54.4 % of HeCon Ab (= 100)
17,B21,144 % of HeCon Ab (= 100)
18,B22,236 % of HeCon Ab (= 100)
19,B23,140 % of HeCon Ab (= 100)
20,B24,45.1 % of HeCon Ab (= 100)
21,B25,49.4 % of HeCon Ab (= 100)
22,B26,82.3 % of HeCon Ab (= 100)
23,B27,15.2 % of HeCon Ab (= 100)
24,B28,102 % of HeCon Ab (= 100)
